From patent US20230034768A1 (BIOSION, published 2023) come the findings set out here.

Numbering of substitutions follows the chain as printed. Where two headings read alike, the source gives them in different places.

The target in experiment [1] is T1, Recombinant human RANKL-his protein (R&D, Cat #6449-TEC-010) (human, UniProt O14788 140-317, limits assumed).
T1 sequence (looked up): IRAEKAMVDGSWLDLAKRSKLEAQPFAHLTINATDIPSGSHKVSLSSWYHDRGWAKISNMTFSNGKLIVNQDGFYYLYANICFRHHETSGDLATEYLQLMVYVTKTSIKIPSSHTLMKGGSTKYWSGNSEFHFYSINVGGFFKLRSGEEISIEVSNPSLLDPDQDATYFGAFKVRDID
The experiment in a line: cell-based or functional assay.

Experiment [2] has as its target T2, human RANKL-his protein (prepared in-house with SEQ ID NO: 43) (human, UniProt O14788 136-317).
T2 construct: also called recombinant human RANKL-his
T2 chain: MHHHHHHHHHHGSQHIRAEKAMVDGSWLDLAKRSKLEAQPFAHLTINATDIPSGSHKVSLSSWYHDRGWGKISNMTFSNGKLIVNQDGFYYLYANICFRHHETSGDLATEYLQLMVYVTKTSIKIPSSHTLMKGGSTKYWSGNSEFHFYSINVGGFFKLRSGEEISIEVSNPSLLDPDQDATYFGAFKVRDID
The experiment can be described thus: Octet BLI, antibody captured, human RANKL-his in solution (same value as Table 2). The protocol: (§1) Briefly, AHC/AMC biosensors (anti-human/anti-mouse IgG Fc capture, ForteBio) were presoaked with 10 mM glycine (pH 1.5) for 3 seconds, and then dipped in a well with running buffer (0.5% w/v BSA in PBST) for 3 seconds, the soaking and dipping steps were repeated for three times. […] A new baseline was run for 180 seconds in another well with HBS-EP⁺. […] Finally, sensors were presoaked with 10 mM glycine (pH 1.5) for 3 seconds, and then dipped in a well with running buffer for 3 seconds, the soaking and dipping steps repeated for three times. The association and dissociation curves were fit to a 1:1 Langmuir binding model using Octet evaluation software.

Experiment [3] deals with T3, biotin-labeled human RANKL-Fc protein (prepared in house, SEQ ID NO.: 40) (human, biotin-labeled (sites not given)).
T3 construct: also called RANKL-Fc-biotin
The experiment in a line: capture ELISA: captured antibody, biotin-labeled human RANKL-Fc, OD(450-630). The method, then:
(§2) Plates were washed once with wash buffer (PBS+0.05% v/v Tween-20, PBST) and then blocked with 200 μl/well blocking buffer (5% w/v non-fatty milk in PBST) for 2 hours at 37° C. […] After a final wash, plates were incubated with 100 μl/well ELISA substrate TMB (Innoreagents, Cat #TMB-S-002) at room temperature. The reaction was stopped in 3-10 minutes with 50 μl/well 1M H₂SO₄, and the absorbance of each well was read on a microplate reader using dual wavelengths mode with 450 nm for TMB and 630 nm as the reference wavelength. The OD (450-630) values were plotted against antibody concentration. Data were analyzed using Graphpad Prism software and EC₅₀ values were reported.

In experiment [4] the target is T3, biotin-labeled human RANKL-Fc protein …. Described as above. The method, then: as §2
(§3) Cell supernatants were harvested after six days in shaking flasks, spun down to pellet cells, and then chimeric antibodies were purified from cell supernatants as described above. The purified antibodies were tested in the capture ELISA, competitive ELISA assay and Octet affinity test following the protocols in the foregoing Examples.
This is another data set of the same source.

Experiment [5] has as its target T2, human RANKL-his protein (prepared …). The experiment can be described thus: Octet BLI, antibody captured on AHC/AMC sensor, human RANKL-his in solution, 1:1 fit. The method, then:
as §1
(In general: In BLI a coated tip is dipped into the sample, and binding shifts an interference pattern.)

Experiment [6] deals with T3, biotin-labeled human RANKL-Fc protein …. The experiment in a line: competitive ELISA: antibody blocks biotin-labeled human RANKL-Fc binding to coated human RANK-Fc. The protocol: (§4) Briefly, human RANK-Fc proteins (prepared in house, SEQ ID NO.: 41) were coated on 96-well micro plates at 2.0 μg/mL in PBS, 100 μl/well, and incubated overnight at 4° C. The next day, plates were washed with wash buffer (PBS+0.05% w/v Tween-20, PBST), and blocked with 5% w/v non-fatty milk in PBST, 200 μl/well, for 2 hours at 37° C.
(§5) Plates were washed 4 times using wash buffer, and added and incubated with 100 μl/well of streptavidin conjugated HRP (1:10000 dilution in PBST buffer, Jackson ImmunoResearch Laboratories, Inc., Cat #016-030-084) for 40 minutes at 37° C. Plates were washed again using wash buffer. Finally, TMB was added and the reaction was stopped using 1M H₂SO₄, and the absorbance of each well was read on a microplate reader using dual wavelengths mode with 450 nm for TMB and 630 nm as the reference wavelength. The OD (450-630) values were plotted against antibody concentration. Data were analyzed using Graphpad Prism software and IC₅₀ values were reported.
On the technique in general: ELISA stands for enzyme-linked immunosorbent assay.

The target is the same in experiment [7]. The experiment in a line: competitive ELISA: antibody blocks biotin-labeled human RANKL-Fc binding to coated benchmark denosumab. The protocol: The next day, plates were washed with wash buffer, and blocked with 5% w/v non-fatty milk in PBST, 200 μl/well, for 2 hours at 37° C. […] After incubation at 37° C. for 40 minutes, plates were washed 4 times using wash buffer. Then the plates were added and incubated with 100 μl Peroxidase Streptavidin (1:5000 dilution in PBST buffer, Jackson Immunoresearch, Cat #016-030-084) for 40 minutes at 37° C. Plates were washed again using wash buffer. Finally, TMB was added and the reaction was stopped using 1M H₂SO₄. The absorbance of each well was read on a microplate reader using dual wavelengths mode with 450 nm for TMB and 630 nm as the reference wavelength, and the OD (450-630) values were plotted against antibody concentration. Data were analyzed using Graphpad Prism software and IC₅₀ values were reported.

The target of experiment [8] is T1, Recombinant human RANKL-his protein …. The experiment in a line: cell-based or functional assay. The source holds these as a separate data set.
For experiment [9] the target is unchanged. The experiment in a line: cell-based or functional assay. This is another data set of the same source.
For experiment [10], the target named is T2, human RANKL-his protein (prepared …). The experiment in a line: Octet BLI, antibody from cell supernatant captured, human RANKL-his in solution. The protocol: as §1
(§6) The chimeric antibody when tested was in HBS-EP⁺ at 5 μg/ml concentration.

The target in experiment [11] is T3, biotin-labeled human RANKL-Fc protein …. The experiment in a line: capture ELISA: captured antibody, biotin-labeled human RANKL-Fc, OD(450-630). The protocol: as §2
For the capture ELISA, 96-well micro plates were coated with 2 μg/ml goat anti-human IgG (AffiniPure Goat Anti-Human IgG, F(ab′)₂ fragment specific, Jackson Immunoresearch, Cat #109-005-097) instead of AffiniPure Goat Anti-Mouse IgG, Fcγ fragment specific, 100 μl/well.
This is another data set of the same source.

In experiment [12] the target is T2, human RANKL-his protein (prepared …). The experiment in a line: Biacore T200 SPR, antibody captured by anti-human IgG, human RANKL-his in flow, 1:1 fit. The method, then: (§7) Briefly, goat anti-human IgG (GE healthcare, Cat #BR100839, Human Antibody Capture Kit) was covalently linked to a CM5 chip (carboxy methyl dextran coated chip from GE healthcare #BR10030) via primary amines, using a standard amine coupling kit provided by Biacore. Un-reacted moieties on the biosensor surface were blocked with ethanolamine. […] The antigen-antibody association kinetics was followed for 2 minutes and the dissociation kinetics was followed for 10 minutes. The association and dissociation curves were fit to a 1:1 Langmuir binding model using BIAcore evaluation software.
For orientation: SPR reads the build-up and loss of mass on a sensor chip optically.

In experiment [13] the target is T4, cynomolgus monkey RANKL-his protein (prepared in-house with SEQ ID NO.:42) (cynomolgus monkey, UniProt O14788 136-317 (human entry), limits assumed).
T4 construct: also called Cynomolgus RANKL
T4 chain: T2 chain with S53T, G70A, I167V
The experiment can be described thus: Biacore T200 SPR, antibody captured by anti-human IgG, cynomolgus RANKL-his in flow, 1:1 fit. The method, then: as §7

For experiment [14], the target named is T3, biotin-labeled human RANKL-Fc protein …. The experiment can be described thus: competitive ELISA: antibody blocks biotin-labeled human RANKL-Fc binding to coated human RANK-Fc. The protocol: as §4, §5
This is another data set of the same source.

Experiment [15] shares this target. The experiment in a line: competitive ELISA: antibody blocks biotin-labeled human RANKL-Fc binding to coated benchmark denosumab. The source holds these as a separate data set.
For experiment [16], the target named is T1, Recombinant human RANKL-his protein …. The experiment can be described thus: cell-based or functional assay. This is another data set of the same source.
In experiment [17] the target is T2, human RANKL-his protein (prepared …). The experiment can be described thus: Octet BLI, antibody captured, human RANKL-his in solution. The method, then:
as §1, §3

Experiment [18] has the same target. The experiment can be described thus: Octet BLI, chimeric antibody at 5 ug/ml captured, human RANKL-his in solution. The method, then: as §1, §6
Experiment [19] has as its target T3, biotin-labeled human RANKL-Fc protein …. The experiment can be described thus: competitive ELISA: antibody blocks biotin-labeled human RANKL-Fc binding to coated human RANK-Fc. The source holds these as a separate data set.
Experiment [20] shares this target. The experiment can be described thus: competitive ELISA: antibody blocks biotin-labeled human RANKL-Fc binding to coated benchmark denosumab. The source holds these as a separate data set.

B1: mouse anti-RANKL monoclonal antibody B3D8 (antibody, V domains shown)
VH: EVQLVESGGDLVKSGGSLKLSCAASGFTFSRYGMSWVRQTPDKRLEWVASISSGGTYTSYPDSVKGRFTITRDSAKNTLYLQMSSLKSEDTAMYYCARRNFITSATDCYFDVWGAGTTVTVSS
VL: DTVLTQSPATLSVTPGASVSLSCRASQSISNNLHWYQQKSHESPRLLIIYASQSISGIPSRFSGSGSGTDFTLSINSVETEDFGVYFCQQSNSWPFTFGGGTKLEIK
notes: Hybridoma-derived mouse IgG; also called Mouse B3D8
As a reminder, the Kd is the equilibrium constant for the complex coming apart. Usually EC50 stands for the concentration at which the effect is half-maximal. The koff is the rate constant with which the complex falls apart. By kon is commonly meant the second-order rate constant of association. Broadly, the IC50 is the concentration that inhibits the measured activity by half. Regarding B1, the “IC50, RANKL-induced osteoclast differentiation of RAW264.7 cells (pNPP, OD405)” value in [1] was found to be 0.625 nM. In addition, the Kd in experiment [2] and in experiment [5] was 0.452 nM each time. The EC50 in [3] worked out at 0.162 nM; in [4] it was 0.489 nM. The molecule further registered a koff in [5] of 0.000277 s⁻¹. In [5], the kon came out at 613000 M⁻¹ s⁻¹. Also, the IC50 was found to be 0.233 nM in experiment [6] and 0.548 nM in experiment [7].

B2: humanized antibody huD1A1-V5 (antibody, human IgG4 S228P, kappa, V domains shown)
VH: EVQLVESGGGLVKPGGSLRLSCAASGFTFRNYAMSWVRQAPGKGLEWVSGISSGGTYTYYPDTVKGRFTISRDNAKNSLYLQMNSLRAEDTAVYYCARRDYGDVYEWYFDVWGKGTTVTVSS
VL: DIQMTQSPSSLSASVGDRVTITCKASQDVRTSIAWYQQKPGKSPKLLIYSASYRYTGVPSRFSGSGSGTDFTFTISSLQPEDLATYYCQQHYSSPWTFGGGTKVEIKR
notes: Human IgG4 / kappa
Consider B2, for which the entries for the “IC50, RANKL-induced osteoclast differentiation of RAW264.7 cells (pNPP, OD405)” value in [8] and in [9] were ~1.42 nM and 1.51 nM, respectively. Further, the Kd in experiment [10] was < 0.001 nM; in experiment [12] it was 0.179 nM; in experiment [13], 0.414 nM. Besides, the koff in [10] is < 1e-07 s⁻¹. The molecule also yielded a kon in experiment [10] of 120000 M⁻¹ s⁻¹. For the same molecule, the EC50 in [11] worked out at 0.182 nM. The IC50 in [14] worked out at 0.139 nM; in experiment [15], 0.338 nM.

B3: Chimeric D1A1 (antibody, human IgG2, kappa, V domains shown)
VH: EVQLVESGGGLVKSGGSLKLSCAASGFTFRNYAMSWVRQTPEKRLEWVAGISSGGTYTYYPDTVKGRFTISRDNARNTLFLQMSSLRSEDTAMYYCARRDYGDVYEWYFDVWGTGTTVTVSS
VL: DIVMTQSHKFMSTSVGDRVSITCKASQDVRTSIAWYQQKPGQSPNLLIYSASYRYTGVPDRFTGSGSGTDFTFTISSVQAEDLAVYYCQQHYSSPWTFGGGTKLEIKR
notes: Mouse variable regions on human IgG2 / kappa; also called chimeric antibody D1A1; chimeric D1A1 antibody
In the case of B3, the “IC50, RANKL-induced osteoclast differentiation of RAW264.7 cells (pNPP, OD405)” value in experiment [16] was 1.39 nM; in [9] it was ~1.42 nM. The Kd is 0.197 nM in experiment [17], < 0.001 nM in [18], 0.149 nM in experiment [12] and 0.42 nM in [13]. Moreover, the dissociation rate constant (koff) in [18] is < 1e-07 s⁻¹. Also, the kon in experiment [18] was 128000 M⁻¹ s⁻¹. The EC50 was 0.257 nM in experiment [11] and 0.624 nM in experiment [4]. The IC50 in experiment [19] was determined as 0.112 nM; in [14] it was 0.155 nM; in experiment [20], 0.473 nM; in [15] it was 0.441 nM.
